From publication PMC3087822 (Nature structural & molecular biology, 2011)

B1: human SNAP25 (residues 11–82) (domain or fragment)
chain: LEEMQRRADQLADESLESTRRMLQLVEESKDAGIRTLVMLDEQGEQLERIEEGMDQINKDMKEAEKNLTDLG

Tests used:
[1] = target: rat Munc13-1(859–1407,1453–1531) fragment (MUN*) (rat) (UniProt Q62768); experiment: NMR titration
[2] = target: cytoplasmic domain (residues 2–253) of rat syntaxin-1A (rat, UniProt P32851 2-253); experiment: SEC

Molecule	Kd [1] [µM]	binding result [2]
Munc18-1–SNARE complex assembly (Munc18-1 plus SNARE complex as titrated on 15N-MUN*) (from UniProt P32851;P63045;P60880)	13	
B1		binds
